Source: IntAct's records for PubMed 20581866

B1: ATPase family AAA domain-containing protein 2 (Mus musculus), Q8CDM1 (parent)
chain: MSLLKMRRHAIHSSDSTSSSSSEDDCFERRTKRNRNRAINRCLPLNFRKDEIRGIYKDRMKIGASLADVDPMQLDTSVRFDSVGGLSSHIAALKEMVVFPLLYPEVFEKFKIQPPRGCLFYGPPGTGKTLVARALANECSRGDKRVAFFMRKGADCLSKWVGESERQLRLLFDQAYQMRPAIIFFDEIDGLAPVRSSRQDQIHSSIVSTLLALMDGLDSRGEIVVIGATNRLDSIDPALRRPGRFDREFLFSLPDKNARKEILKIHTRDWNPKPVDMFLEELAEHCVGYCGADIKSICAEAALCALRRRYPQIYTTSEKLQLDLSSITISAKDFEAALQKIRPASQRAVTSPGQALSAIVKPLLQNTVHRILDALQKVFPHVEVGTNKSLNSDVSCPFLESDLAYSDDDTPSVYENGLSQKENLNFLHLNRNACYQPMSFRPRLLIVGEPGFGQSSHLAPAVIHALEKFTVYTLDIPVLFGISTTSPEEACSQMIREAKRTAPSIVYVPHIHLWWEIVGPTLKATFTTLLQTIPSFAPVLLLATSEKPYSALPEEVQELFTHDYGEIFNVQLPDKEERTKFFEDLILKQASKPPVSQKKAVLQALEVLPVAPPPEPRPLTAEEVKRLEEQEEDTFRELRIFLRNVTHRLAIDKRFRVFTKPVDPDEVPDYVTVIKQPMDLSSVISKIDLHKYLTVKDYLKDIDLICSNALEYNPDRDPGDRLIRHRACALRDTAYAIIKEELDEDFEQLCEEIQESRKKRGCSSSKYAPSYYHVMPKQNSPPVGDKKPDQEQNEKLKVPCTPVACSTPAQLKRKFHKKSKWHVGTKIKRRKISQAKDNSLNAMNSSSRSDTEDSQHTHAEHTEPGNTDESSVEESDKQNRLESNIDLKNNSSSSNIENELEEPKETTEGTELRKDRIVCRGDASASQVTDIPEDSESKEMDFLRMTLARGSQVEQQELISMEQALAILSQPTPSLVLDHKQLTNILKTVVKKSQKYNIFQLENLYAVISQCIYEHRRDYDKTALVQKMEQAVENFNCSRS

Variants of: B1
Settings: with h4_mouse H4c11, P62806

Row | Variant | effect of a mutation on the interaction
1 | K128S | disrupting interaction
2 | Y670F | disrupting interaction
